In one assay the target is T1, CP-GST (rice stripe virus (RSV), UniProt P68559 1-322).
T1 chain: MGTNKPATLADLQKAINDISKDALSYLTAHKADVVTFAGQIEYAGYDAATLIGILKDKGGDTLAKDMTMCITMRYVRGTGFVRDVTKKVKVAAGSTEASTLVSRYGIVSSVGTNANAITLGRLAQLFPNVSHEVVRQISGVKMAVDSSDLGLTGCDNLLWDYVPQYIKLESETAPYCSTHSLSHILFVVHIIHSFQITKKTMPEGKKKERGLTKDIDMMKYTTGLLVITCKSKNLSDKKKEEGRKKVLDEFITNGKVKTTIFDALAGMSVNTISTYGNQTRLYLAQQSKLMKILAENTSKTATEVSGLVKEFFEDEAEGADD
In words: MST.

A further assay concerns the target T2, NS3-GST (rice stripe virus (RSV)).
T2 chain: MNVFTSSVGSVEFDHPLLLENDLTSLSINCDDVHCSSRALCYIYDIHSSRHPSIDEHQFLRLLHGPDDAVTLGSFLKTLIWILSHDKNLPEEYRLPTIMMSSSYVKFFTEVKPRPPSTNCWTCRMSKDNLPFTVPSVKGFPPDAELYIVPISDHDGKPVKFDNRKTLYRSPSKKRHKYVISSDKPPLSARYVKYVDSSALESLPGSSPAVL
In words: MST.

B1: OsVIRK1C-His (domain or fragment)
chain: LCKRNRKPHKHMMIGSVDLGDEDEMRGSESLLYDLSTLRAATANFSEENKLGEGGFGPVYKGTLQNGQEIAVKRLSATSHQGQLEMKNEVVLVAKLQHKNLVRLLGCCIEEREKILVYEFLCNKSLDTILFDTSRQQDLNWEQRFKIIEGIGRGLLYLHEDSRLKIIHRDLKASNILLDVDMNPKISDFGLAKLFNMEASVANTSRIAGTYGYMAPEYALHGIFSAKSDVFSYGVLLLEIVTGRRNTCLHDSEDLLAFVWRHWSRGGAGELLDGCPAAGRRPQELLRCIHVGLLCVQEDPQLRPGMAAVVVMLNSRSVTLPAPSAPAFVSASRGIGGSPPPAAAAGDAPARSTDHEVPTAAR
modifications: labelling dye (NanoTemper) in the MST assay
As to B1, the Kd with CP-GST is 704 nM; in the assay with NS3-GST, 4250 nM.

B2: OsVIRK1N-His (domain or fragment)
chain: MAPPPPSPPCRPRVKPERALLCFSLLLLLTATTANASITDCPTTSSTNSSHVDDGAFGANLRALLSSLSAAAAASSSGFAENATGAAPDTAYGLAQCRGGIVGGGNGTSCRSCLDDSVRDAAKACPGEKSAVIISDYCLVRYSNASFAGAADERTVKLWWNTDNATQPERFKSLLGTLMGNLTDAAARASSPLMFAAGETDLPPFTKIYGMAQCTRDLAAGDCYRCLVGAVNNIPKCCDGKQGGQVITRSCSIRFEVYPFFDA
modifications: labelling dye (NanoTemper) in the MST assay
With B2, the results for the Kd in the assay with CP-GST and with NS3-GST were 1300 nM and 5200 nM, respectively.

Values taken from article PMC12708648 (2025).
